For this data set, the target named is T1, DisCas7-11 (Desulfonema ishimotonii).
T1 chain: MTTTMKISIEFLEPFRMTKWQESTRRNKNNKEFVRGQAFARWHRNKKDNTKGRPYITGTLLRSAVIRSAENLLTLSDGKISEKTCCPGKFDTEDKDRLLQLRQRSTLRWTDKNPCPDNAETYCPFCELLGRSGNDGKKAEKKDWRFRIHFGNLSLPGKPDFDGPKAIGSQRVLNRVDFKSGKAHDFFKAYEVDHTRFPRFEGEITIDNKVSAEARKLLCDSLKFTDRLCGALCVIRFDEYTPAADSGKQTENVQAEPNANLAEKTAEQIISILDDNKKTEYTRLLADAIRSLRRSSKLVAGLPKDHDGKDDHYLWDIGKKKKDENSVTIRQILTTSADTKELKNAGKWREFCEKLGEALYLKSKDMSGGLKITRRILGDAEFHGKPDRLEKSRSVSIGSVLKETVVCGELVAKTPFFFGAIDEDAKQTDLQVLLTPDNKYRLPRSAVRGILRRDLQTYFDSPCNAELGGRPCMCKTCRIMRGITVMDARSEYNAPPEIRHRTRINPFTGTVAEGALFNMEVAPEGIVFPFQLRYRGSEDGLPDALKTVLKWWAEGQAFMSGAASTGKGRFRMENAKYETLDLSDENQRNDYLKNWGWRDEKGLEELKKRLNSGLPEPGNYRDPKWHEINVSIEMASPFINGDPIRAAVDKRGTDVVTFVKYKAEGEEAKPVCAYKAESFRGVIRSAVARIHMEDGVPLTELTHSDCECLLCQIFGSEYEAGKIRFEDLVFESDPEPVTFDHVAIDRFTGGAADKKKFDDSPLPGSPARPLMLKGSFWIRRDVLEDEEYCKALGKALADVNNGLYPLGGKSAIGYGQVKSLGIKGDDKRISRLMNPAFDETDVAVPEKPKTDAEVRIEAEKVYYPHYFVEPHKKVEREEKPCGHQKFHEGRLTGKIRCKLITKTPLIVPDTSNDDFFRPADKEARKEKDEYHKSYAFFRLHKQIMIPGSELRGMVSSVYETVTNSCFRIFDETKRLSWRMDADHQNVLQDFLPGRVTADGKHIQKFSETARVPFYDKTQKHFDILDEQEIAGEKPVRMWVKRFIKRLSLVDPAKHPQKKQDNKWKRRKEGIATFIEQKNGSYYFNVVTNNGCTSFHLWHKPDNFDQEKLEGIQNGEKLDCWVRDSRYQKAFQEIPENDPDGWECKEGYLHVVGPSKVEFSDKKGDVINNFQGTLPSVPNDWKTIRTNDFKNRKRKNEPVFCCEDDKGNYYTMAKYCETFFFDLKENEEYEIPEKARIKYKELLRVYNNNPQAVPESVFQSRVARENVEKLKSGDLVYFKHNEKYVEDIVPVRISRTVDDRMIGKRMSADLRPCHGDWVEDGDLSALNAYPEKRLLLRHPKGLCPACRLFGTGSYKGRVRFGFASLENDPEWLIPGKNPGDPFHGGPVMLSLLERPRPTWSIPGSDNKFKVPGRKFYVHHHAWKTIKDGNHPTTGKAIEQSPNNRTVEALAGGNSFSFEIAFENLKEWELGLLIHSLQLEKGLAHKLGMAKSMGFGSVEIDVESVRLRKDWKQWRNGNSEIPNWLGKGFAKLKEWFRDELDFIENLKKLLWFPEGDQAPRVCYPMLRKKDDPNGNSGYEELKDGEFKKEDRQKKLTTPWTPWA
Nature of the data set: EMSA; target binding crRNA-dependent; non-targeting control. Conditions: tags: Twin-Strep-SUMO tag cleaved off during purification; label: Cy5.5 body label. How it is done:
Electrophoretic mobility shift assays (EMSA) for crRNA-target interactions and quantification of EMSA intensities were performed (FIGS. 17A-F). The EMSA assays for targeting crRNA in the absence of DisCas7-11 show minimal binding of the cRNA and shift of the labeled target).
(Mobility shift assays separate free from complexed probe on a gel.)

B1: DisCas7-11 non-targeting crRNA ; MS2 target 153 nt (ssRNA ; ssRNA)
RNA 1: GGUUGGAAAGCCGGUUUUCUUUGAUGUCACGGAACCGCCAAUAUAACAAUACAGGUAUUAUAGUUG
RNA 2: GGGGCAAACUCCGGCAUCUACUAAUAGACGCCGGCCAUUCAAACAUGAGGAUUACCCAUGUCGAAGACAACAAAGAAGUUCAACUCUUUAUGUAUUGAUCUUCCUCGCGAUCUUUCUCUCGAAAUUUACCAAUCAAUUGCUUCUGUCGCUACU
Regarding B1, the binding result was “no binding”.

Values taken from patent US20240294890, “SYSTEMS, METHODS, AND COMPOSITIONS FOR RNA-GUIDED RNA-TARGETING CRISPR EFFECTORS” (MASSACHUSETTS INSTITUTE OF TECHNOLOGY, published 2024).
